Measurements reported in patent publication US12371675B2, “Process and microorganism for synthesis of adipic acid from carboxylic acids” (THE GOVERNING COUNCIL OF THE UNIVERSITY OF TORONTO, priority 2015, dated 2025).

Tests used:
[1] = substrate: O=CCCCCC=O; experiment: AT kinetics, coupled with alanine and glutamate dehydrogenases; type: biochemical, Streptomyces avermitilis; conditions: other: amino-donor Ala/Glu; pH 7.5
Method: (§1) 28 PLP-dependent aminotransferases (from the classes I, II and III) were cloned and overexpressed in E. coli (Table 6). Enzymes were purified using affinity chromatography on a Ni-NTA resin and were screened for […] activity towards adipaldehyde using alanine and glutamate as amino-donors. Enzyme activity was measured spectrophotometrically using a coupled reaction with the NADPH/NADH-dependent alanine and glutamate dehydrogenases in the presence of excess of ammonium chloride.
(§2) Reaction was monitored by following the decrease in absorbance of NAD(P)H to NAD(P)+ at 340 nm (ε340 nm=6,220/M·cm). Coupled enzymes can aminate pyruvate/ketoglutarate produced by ATs in excess of NH4Cl.

[2] = substrate: CCCC=O; experiment: AR kinetics, aldehyde reduction followed by NAD(P)H oxidation; type: biochemical, Thermotoga maritima; conditions: other: butyraldehyde, pH 7.5
Text: (§3) 28 aldehyde reductases from different bacteria were cloned and overexpressed in E. coli. Enzymes purified using affinity chromatography on Ni-NTA resin were screened for reductase activity with adipaldehyde and butyraldehyde in presence of both NADPH and NADH (Table 5). Butyraldehyde was used as a substrate substitute for 4-oxo-butanal, which is not commercially available. Reactions were followed spectrophotometrically, by cofactor oxidation at 340 nm.
(§4) Enzyme activity of purified ARs was measured spectrophotometrically in 96-well plates Reaction mixtures contained 100 mM HEPES buffer (pH 7.5), 0.4 mM NADH/NADPH, 10 mM adipaldehyde or butylaldehyde, and proteins (10 μg for adipaldehyde screen, 2 μg for butyraldehyde screen) in a final volume of 200 μL Reaction mixture for adipaldehyde screening contained 1.8% DMSO. Enzyme reactions were monitored by following the decrease in absorbance at 340 nm (ε340 nm=6,220/M·cm) due to oxidation of NAD(P)H to NAD(P)+.
(§5) ARs RHA1_ro05279, PA1146, SC00229, PP_3370 were characterised for saturation with adipaldehyde, PP_3370, PSPTO_2097, RHA1_ro05279, SC00229, TM_0111, PA1146 were characterised for butyraldehyde saturation (Table 10). […] For both substrates maximal kcat/Km with minimal Km values was shown by AR PP 3370 from Pseudomonas putida.

[3] = substrate: CCCC=O; experiment: as above; type: biochemical, Pseudomonas putida; conditions: other: butyraldehyde, pH 7.5
Text: as §3, §4, §5

[4] = substrate: O=CCCCCC=O; experiment: as above; type: biochemical, Pseudomonas putida; conditions: other: adipaldehyde, 1,8% DMSO, pH 7.5
Text: as §3, §4, §5

[5] = substrate: O=C(O)/C=C/c1ccccc1; experiment: Kinetics of purified EREDBC, NADH oxidation at 340 nm, anaerobic; type: biochemical, Bacillus coagulans 36D1; conditions: other: trans-cinnamic acid, pH 7.0, 30° C., anaerobic
Method: (§6) The C═C reducing activity of EREDs was examined. Enzyme activity of purified EREDs was measured spectrophotometrically in 96-well plates by following incubation for 3-5 min at 30° C. in the anaerobic chamber as described in M. Buhler, H. Simon, Hoppe-Seyler's Zeitschrift fur Physiologische Chemie 1982, 363, 609-625. Buffers and reagents were degassed and sparged with Ar. Reaction mixture contained potassium phosphate (100 mM and pH 7.0), NADH (0.5 mM), indicated substrates, and proteins (0.1-50 μg) in a final volume of 200 μL. Enzyme reactions were monitored by following the decrease in absorbance at 340 nm (ε340 nm=6,220/M·cm) due to oxidation of NADH to NAD+.
(§7) For in vitro biochemical characterization, enzyme activities of purified EREDs were measured with 2-hexenedioic acid, cis-cis-muconic acid, trans-trans muconic acid, trans-cinnamic acid, trans-2-methyl-2-butenoic acid, trans-2-butenoic acid, acrolein, 2-cyclohexen-1-one, and 3-methyl-2-cyclohexenone. […] [Feng, J. et al. Discovery and Characterization of BlsE, a Radical S-Adenosyl-L-methionine Decarboxylase Involved in the Blasticidin S Biosynthetic Pathway. PLoS ONE 8 (2013)].
(§8) Kinetic studies of purified EREDBC were performed using 2-hexenedioic acid, 2-cyclohexen-1-one, 3-methyl-2-cyclohexenone, and trans-cinnamic acid as substrates (FIG. 10).
(§9) To increase the dissolved substrate concentration, 2-hexenedioic acid was dissolved in a reaction mixture containing […] (final concentration) isopropanol, and kinetic constants of EREDBC and EREDCA were determined.

[6] = substrate: O=C(O)C=CCCC(=O)O; experiment: as above; type: biochemical, Bacillus coagulans 36D1; conditions: other: 2-hexenedioic acid in 0.25 mM isopropanol, 2.5 to 35 mM, sigmoidal kinetics, pH 7.0, 30.0 °C
Method: as §6, §7, §8, §9

[7] = substrate: O=CCCCCC=O; experiment: AT kinetics, coupled with alanine and glutamate dehydrogenases; type: biochemical, Escherichia coli; conditions: other: amino-donor Ala/Glu; pH 7.5
Method: as §1, §2

[8] = substrate: CCCC=O; experiment: AR kinetics, aldehyde reduction followed by NAD(P)H oxidation; type: biochemical, Streptomyces coelicolor; conditions: other: butyraldehyde, pH 7.5
Text: as §3, §4, §5

[9] = substrate: O=CCCCCC=O; experiment: as above; type: biochemical, Streptomyces coelicolor; conditions: other: adipaldehyde; cofactor NADPH; 1,8% DMSO; pH 7.5
Text: as §3, §4, §5

B1: Streptomyces avermitilis aminotransferase SAV2583, SEQ ID NO: 55 (Streptomyces avermitilis MA-4680 = NBRC 14893) (protein)
chain: MSALPQERRVVTAIPGPKSQELQARRTAVVAAGVGSVLPVFTTRAGGGIIEDVDGNRLIDFGSGIAVTSVGASAEAVVRRASAQLQDFTHTCFMVTPYEGYVAVAEALAELTPGDHAKKSALFNSGAEAVENAVKIARAYTKRQAVVVFDHGYHGRTNLTMALTAKNMPYKNGFGPFAPEVYRVPVAYGYRWLTGPENAGAEASAQAIDMINKQIGADNVAAIIIEPVLGEGGFIEPAKGFLPAISKFAKDNGIVFVADEIQSGFCRTGQWFACEDEGIVPDLITTAKGIAGGLPLAAVTGRAEIMDAAHAGGLGGTYGGNPVACAGALGAIETMKELDLNAKAKNIEAVMKARLGAMAEKFDIIGDVRGRGGMIAIELVKDRDTKEPNPEAAGALAKACHQEGLLVLTCGTYGNVLRFLPPLVIGEDLLNEGLDIIEQAFSRI
- Km [1]: 1350 ± 190 µM
- kcat [1]: 0.39 ± 0.02 s⁻¹
- kcat/Km [1]: (2.90 ± 0.13) × ×10^2 M^−1 · s^−1

B2: Thermotoga maritima aldehyde reductase TM_0111, SEQ ID NO: 52 (Thermotoga maritima MSB8) (protein)
chain: MFKISFYLPTEIIFRVGAVDELEERAKKLGKKALIVTGRSSTKKTGLLQRVVDLLKKAGVESFVFDKIVPNPISDHVDEAAEIVRKEKIDFIIGLGGGSPIDSAKAISITAPNEGKFWDYVPVGGGKIPEKSIPVVAIPTTHGTGTEADPFAVITNPQTKEKVGIGYRNTFPVLSLVDPEVMKTLPKDQTAYTSMDAFYHAIEAFLNVNANPYSDVLALDAMKRIVTYLPVAYENGEDMEARTNLAWASTEAGITETLTGVIANHALEHGLSGFYPEITHGLGLCITGPYLFEYIFDHAYERLAIVGREVFGVYETDDRKAGRLAIKKLRDFQEMFGLNKRLSELGVKKEDIPKMAETGYRILNGVVVVTPGNLTAKDMEEIFNRCY
- Km ([2]; cofactor NADH): 1370 ± 310 µM
- kcat ([2]; cofactor NADH): 0.90 ± 0.05 s⁻¹
- kcat/Km ([2]; cofactor NADH): (6.57 ± 0.36) × ×10^2 M^−1 · s^−1
- Km ([2]; cofactor NADPH): 2720 ± 1390 µM
- kcat ([2]; cofactor NADPH): 0.30 ± 0.06 s⁻¹
- kcat/Km ([2]; cofactor NADPH): (1.10 ± 0.22) × ×10^2 M^−1 · s^−1

B3: Pseudomonas putida aldehyde reductase PP_3370, SEQ ID NO: 45 (Pseudomonas putida KT2440) (protein)
chain: MQYVKLGSTGLDISRLCLGCMTFGEPDAGTHPWTLGEDASRPIIRHAVEQGINFFDTANSYSAGTSEIILGKLLREFTRREETVIATKVFFPANMWEGASRPNEQGLSRKAIMANIDASLSRLGTDYVDLYQIHRWDYHTPIEETMEALHDVVKAGKARYIGASSMYAWQFAKAQQVAANHGWSRFVSMQNYLNLIYREEEREMIPLCLDQGVGLMPWSPMARGRLTRPHGQQTQRTRTDVSGQSFYEKTEVEDGRVIDVVEQIASERGVPMAQVALAWVLGRAGVSAPIVGASKPAHLDDALGALSLQLSEDEVARLQAPYVPHAVTGFK
- Km ([3]; cofactor NADH): 16100 ± 1890 µM
- kcat ([3]; cofactor NADH): 10.7 ± 0.73 s⁻¹
- kcat/Km ([3]; cofactor NADH): (6.64 ± 0.45) × ×10^2 M^−1 · s^−1
- Km ([3]; cofactor NADPH): 1530 ± 110 µM
- kcat ([3]; cofactor NADPH): 8.54 ± 0.22 s⁻¹
- kcat/Km ([3]; cofactor NADPH): 5.58±0.14 ×10^3 M^−1 · s^−1
- Km ([4]; cofactor NADH): 4780 ± 490 µM
- kcat ([4]; cofactor NADH): 1.74 ± 0.08 s⁻¹
- kcat/Km ([4]; cofactor NADH): (3.64 ± 0.16) × ×10^2 M^−1 · s^−1
- Km ([4]; cofactor NADPH): 290 ± 20 µM
- kcat ([4]; cofactor NADPH): 6.03 ± 0.25 s⁻¹
- kcat/Km ([4]; cofactor NADPH): 2.08±0.09 ×10^4 M^−1 · s^−1

B4: Bacillus coagulans 36D1 2-enoate reductase EREDBC, SEQ ID NO: 1 (Heyndrickxia coagulans) (protein)
chain: MKYKKLFETVKIRNVELKNRYAMAPMGPLGLADAEGGFNQRGIEYYTARARGGTALIITGVTFVDNEVEEHGMPNVPCPTHNPVHFVRTSKEMTERIHAYDSKIFLQMSAGFGRVTIPTNLGEYPPVAPSPIPHRWLDKTCRELTVEEIHSIVRKFGDGAFNAKRAGFDGVQIHAVHEGYLLDQFAIAFFNKRTDAYGGPLENRLRFAREIVEEIKQRCGEDFPVTLRFSPKSFIKDWREGALPGEEFEEKGRDLDEGIEAAKLLVSYGYDALDVDVGSYDSWWWSHPPMYQKKGLYIPYARLVKEAVDVPVLCAGRMDNPDLALAALEDGACDIISLGRPLLADPDYVNKLRIGQVADIRPCLSCHEGCMGRIQEYSSLGCAVNPAACREKEAALTPALKKKRVLIAGGGVAGCEAARVLALRGHEPVIFEKSNRLGGNLIPGGAPDFKEDDLALVAWYEHTLERLGVEIHLNTALTKEEILAANVDAVLIATGSNPKILPLDGKNKVFTAEDVLLDKVDAGQHVVIVGGGLVGCELALNLAEKGKDVSLVEMQDKLLAVNGPLCHANSDMLERLVPFKGVQVYTSSKIVDTTEKTAVVDVDGELREIEADSIVLAVGYSAEKSLYEDLKFEVADLHVVGDARKVANIMYAIWDAYEVAANL
- Km [5]: 510 µM
- kcat [5]: 0.50 s⁻¹
- Km [6]: 18900 µM

B5: Escherichia coli aminotransferase gabT, SEQ ID NO: 53 (Escherichia coli K-12) (protein)
chain: MNSNKELMQRRSQAIPRGVGQIHPIFADRAENCRVWDVEGREYLDFAGGIAVLNTGHLHPKVVAAVEAQLKKLSHTCFQVLAYEPYLELCEIMNQKVPGDFAKKTLLVTTGSEAVENAVKIARAATKRSGTIAFSGAYHGRTHYTLALTGKVNPYSAGMGLMPGHVYRALYPCPLHGISEDDAIASIHRIFKNDAAPEDIAAIVIEPVQGEGGFYASSPAFMQRLRALCDEHGIMLIADEVQSGAGRTGTLFAMEQMGVAPDLTTFAKSIAGGFPLAGVTGRAEVMDAVAPGGLGGTYAGNPIACVAALEVLKVFEQENLLQKANDLGQKLKDGLLAIAEKHPEIGDVRGLGAMIAIELFEDGDHNKPDAKLTAEIVARARDKGLILLSCGPYYNVLRILVPLTIEDAQIRQGLEIISQCFDEAKQ
notes: 6His-tag (N); made in house; host or cells: E. coli BL21 (DE3)
- Km [7]: 670 ± 70 µM
- kcat [7]: 0.61 ± 0.02 s⁻¹
- kcat/Km [7]: 9.22±0.27 ×10^2 M^−1 · s^−1

B6: Streptomyces coelicolor aldehyde reductase SCO0229, SEQ ID NO: 50 (Streptomyces coelicolor A3(2)) (protein)
chain: MQRQNWLITGVSTGLGRAFAQAALSAGHTVVGTVRSENDVRAFEELGPGHAHGRILDVTDGGAVNGVVAEVERSVGPLDVVVANAGYGLEGTFEETPLAEVRRQFDVNVFGAMATLQAALPHMRARRRGHLMAVTSMGGLMAVPGMSAYCGSKFALEGILEALGKEVAQFGIHVTAIEPGSFRTDWAGRSMTRAARTVADYDDLFAPIREARQKASGNQLGNPAKAGEAVVHITSVDQPPAHLVLGSDALRLVTAARTAVDEDIRAWEALSRTTDFPQGAQL
- Km ([8]; cofactor NADH): 6560 ± 2540 µM
- kcat ([8]; cofactor NADH): 0.90 ± 0.05 s⁻¹
- kcat/Km ([8]; cofactor NADH): (1.07 ± 0.18) × ×10^2 M^−1 · s^−1
- Km ([8]; cofactor NADPH): 35700 ± 10500 µM
- kcat ([8]; cofactor NADPH): 21.9 ± 4.69 s⁻¹
- kcat/Km ([8]; cofactor NADPH): (6.15 ± 1.31) × ×10^2 M^−1 · s^−1
- Km [9]: 8480 ± 580 µM
- kcat [9]: 3.79 ± 0.10 s⁻¹
- kcat/Km [9]: (4.47 ± 0.12) × ×10^2 M^−1 · s^−1
